Test results from article PMC3534766.

Molecular target: FUS-RRM wild type (Homo sapiens, UniProt P35637 278-385)
Assay: NMR titration

FUS-RRM wild type, sequence (P35637 278-385): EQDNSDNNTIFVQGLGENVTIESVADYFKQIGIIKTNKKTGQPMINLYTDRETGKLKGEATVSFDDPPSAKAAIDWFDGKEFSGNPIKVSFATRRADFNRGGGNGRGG

TTAGGGTTAGGGTTAGGGTTAGGG (structured_DNA) [24-mer d(TTAGGG)4 (NMR)]: binds.
